Assay results: publication PMC3285272 (Cell, 2012)

How the values were obtained:
Assay in all cases: pull-down
[1] = molecular target: T1, γζ-COP lacking the C-terminal appendage domain of γ-COP (γ-COP 1–617) (B. taurus, UniProt P53620 1-617; P35604 1-177)
T1 sequence (looked up) 1: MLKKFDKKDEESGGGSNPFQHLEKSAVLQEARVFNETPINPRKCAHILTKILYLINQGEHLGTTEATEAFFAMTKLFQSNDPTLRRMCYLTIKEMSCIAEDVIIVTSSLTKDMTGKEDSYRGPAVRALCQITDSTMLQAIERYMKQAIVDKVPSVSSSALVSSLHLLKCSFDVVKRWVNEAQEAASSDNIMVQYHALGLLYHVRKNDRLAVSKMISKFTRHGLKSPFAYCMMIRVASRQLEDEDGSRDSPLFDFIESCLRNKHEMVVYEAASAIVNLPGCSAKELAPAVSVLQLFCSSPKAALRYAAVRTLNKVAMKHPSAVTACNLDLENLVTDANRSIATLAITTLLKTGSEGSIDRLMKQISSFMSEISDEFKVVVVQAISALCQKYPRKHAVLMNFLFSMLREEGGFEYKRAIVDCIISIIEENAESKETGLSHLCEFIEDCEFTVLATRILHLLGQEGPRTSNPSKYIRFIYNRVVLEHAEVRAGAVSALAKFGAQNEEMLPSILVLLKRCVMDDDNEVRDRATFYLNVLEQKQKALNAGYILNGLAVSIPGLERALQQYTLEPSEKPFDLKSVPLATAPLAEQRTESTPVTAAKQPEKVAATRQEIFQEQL
T1 sequence (looked up) 2: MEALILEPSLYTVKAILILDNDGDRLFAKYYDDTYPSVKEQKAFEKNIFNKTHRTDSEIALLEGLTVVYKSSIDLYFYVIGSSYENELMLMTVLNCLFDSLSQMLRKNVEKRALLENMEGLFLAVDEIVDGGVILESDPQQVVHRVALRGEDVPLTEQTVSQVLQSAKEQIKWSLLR

[2] = molecular target: T2, γζ-COP core complex (bovine γ-COP 1–355 plus ζ-COP 1–153) (B. taurus, UniProt P53620 1-355; P35604 1-153)
T2 sequence (looked up) 1: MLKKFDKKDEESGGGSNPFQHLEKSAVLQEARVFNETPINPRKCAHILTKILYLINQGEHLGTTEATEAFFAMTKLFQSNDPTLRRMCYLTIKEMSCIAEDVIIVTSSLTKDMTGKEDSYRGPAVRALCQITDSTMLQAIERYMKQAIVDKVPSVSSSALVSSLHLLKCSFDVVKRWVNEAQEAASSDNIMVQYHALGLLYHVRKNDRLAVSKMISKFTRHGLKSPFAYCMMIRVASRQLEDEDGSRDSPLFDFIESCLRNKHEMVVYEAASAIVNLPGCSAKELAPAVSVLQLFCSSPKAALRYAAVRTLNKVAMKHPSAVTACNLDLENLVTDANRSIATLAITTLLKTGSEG
T2 sequence (looked up) 2: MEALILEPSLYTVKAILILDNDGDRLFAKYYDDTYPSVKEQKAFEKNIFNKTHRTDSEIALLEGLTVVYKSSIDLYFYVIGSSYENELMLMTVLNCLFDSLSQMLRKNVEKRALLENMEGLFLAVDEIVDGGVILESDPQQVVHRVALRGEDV

[3] = molecular target: T3, full-length γζ-COP dimer (B. taurus, UniProt P53620 1-874; P35604 1-177)
T3 sequence (looked up) 1: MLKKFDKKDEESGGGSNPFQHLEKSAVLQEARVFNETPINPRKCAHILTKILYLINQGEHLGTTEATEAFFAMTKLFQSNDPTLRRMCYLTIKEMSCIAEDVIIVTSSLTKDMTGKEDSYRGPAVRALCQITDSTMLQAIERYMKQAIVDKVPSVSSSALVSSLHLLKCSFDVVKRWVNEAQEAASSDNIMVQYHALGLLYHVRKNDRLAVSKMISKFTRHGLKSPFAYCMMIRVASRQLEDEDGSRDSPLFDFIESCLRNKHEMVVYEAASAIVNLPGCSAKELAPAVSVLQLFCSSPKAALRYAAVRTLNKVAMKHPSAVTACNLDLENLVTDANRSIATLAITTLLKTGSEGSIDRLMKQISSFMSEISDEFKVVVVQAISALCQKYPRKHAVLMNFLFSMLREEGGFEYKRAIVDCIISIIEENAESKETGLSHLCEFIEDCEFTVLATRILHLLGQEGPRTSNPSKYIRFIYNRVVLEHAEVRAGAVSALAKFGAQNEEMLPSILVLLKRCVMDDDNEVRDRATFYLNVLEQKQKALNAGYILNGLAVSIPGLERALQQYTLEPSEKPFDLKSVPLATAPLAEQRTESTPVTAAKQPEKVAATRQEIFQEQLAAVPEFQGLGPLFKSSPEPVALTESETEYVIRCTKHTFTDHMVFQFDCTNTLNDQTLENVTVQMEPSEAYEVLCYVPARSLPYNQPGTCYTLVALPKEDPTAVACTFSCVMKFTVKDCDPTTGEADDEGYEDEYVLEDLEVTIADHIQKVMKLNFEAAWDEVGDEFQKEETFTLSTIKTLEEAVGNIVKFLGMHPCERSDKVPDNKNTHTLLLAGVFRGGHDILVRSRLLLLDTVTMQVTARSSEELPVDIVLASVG
T3 sequence (looked up) 2: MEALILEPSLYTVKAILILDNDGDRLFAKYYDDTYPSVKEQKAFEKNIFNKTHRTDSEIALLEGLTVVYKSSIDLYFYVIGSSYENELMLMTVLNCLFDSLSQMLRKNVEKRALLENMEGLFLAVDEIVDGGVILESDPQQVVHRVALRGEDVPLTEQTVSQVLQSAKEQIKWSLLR

Measured: binding result

B1: S. cerevisiae Arf1 (residues 18–181) with a C-terminal GST tag (domain or fragment, UniProt P11076 18-181, looked up)
chain: MRILMVGLDGAGKTTVLYKLKLGEVITTIPTIGFNVETVQYKNISFTVWDVGGQDRIRSLWRHYYRNTEGVIFVVDSNDRSRIGEAREVMQRMLNEDELRNAAWLVFANKQDLPEAMSAAEITEKLGLHSIRNRPWFIQATCATSGEGLYEGLEWLSNSLKNST
binds: all assays above
